6 substances from patent publication US20210085770A1 can be followed below.

Where two headings read alike, the source gives them in different places.

Assay [1] has as its target recombinant SARS-CoV-2 S1 protein expressed from insect (Sf9) cells (S1-His, SinoBiological, Cat. No. 40591-V08B1) (SARS-CoV-2) (UniProt P0DTC2). Nature of the assay: ELISA, coated insect-cell S1-His, HRP-conjugated lectin 10 ug/mL. (An ELISA detects its analyte on a solid surface through an enzyme-linked reagent.)
Assay [2] shares this target.

Sequence of Maclura pomifera lectin (MPA) (P18674 whole entry): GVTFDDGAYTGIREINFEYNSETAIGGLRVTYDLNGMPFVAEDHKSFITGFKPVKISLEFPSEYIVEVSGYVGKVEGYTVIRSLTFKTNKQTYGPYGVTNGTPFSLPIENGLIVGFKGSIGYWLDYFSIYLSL
Sequence of Maclura pomifera lectin (MPA) (P18676 whole entry, further chain): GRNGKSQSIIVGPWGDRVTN
Sequence of Peanut Agglutinin (PNA), lectin from Arachis hypogaea (P02872 24-259 limits assumed): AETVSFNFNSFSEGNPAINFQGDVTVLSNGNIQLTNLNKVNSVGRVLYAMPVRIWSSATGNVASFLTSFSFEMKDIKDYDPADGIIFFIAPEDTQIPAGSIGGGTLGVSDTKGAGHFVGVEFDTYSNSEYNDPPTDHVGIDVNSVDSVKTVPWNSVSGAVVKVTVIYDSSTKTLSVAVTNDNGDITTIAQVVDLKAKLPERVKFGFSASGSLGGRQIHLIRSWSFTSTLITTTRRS

For the substance Maclura pomifera lectin (MPA), in assay [1], the mean fold increase of OD450 came to 7.51 fold.
On to “Peanut Agglutinin (PNA), lectin from Arachis hypogaea (from UniProt P02872 24-259)”, for which the mean fold increase of OD450 in assay [1] was determined as 22.7 fold.
For “SPM320 IgM anti-TF monoclonal antibody (Abnova, Cat. No. MAB13207)”, the mean fold increase of OD450 in assay [2] worked out at 5.5 fold.
For the substance Salvia sclarea lectin (SSA), the mean fold increase of OD450 in assay [1] is 3.97 fold.
Regarding “Tn218 IgM anti-Tn monoclonal antibody (Abnova, Cat. No. MAB6198)”, in assay [2], the mean fold increase of OD450 amounted to 1.77 fold.
On the same count and under the same terms, with mouse monoclonal IgG3 antibody JAA-F11 the figure was 3.32 fold.
